In the supplement of paper PMC10567573:
± gives the standard deviation.

Experiment: protein stability index of a GFP-peptide fusion (GPS, HEK-293T) (PSI 1-6); higher = more stable
[1] = treatment: DMSO, c terminus: a fixed tail appended
[2] = treatment: MLN4924 1 uM, 8 h, c terminus: a fixed tail appended
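Also: 24-mer peptide tiles fused after GFP, lentivirally expressed, FACS-sorted into six equal bins by GFP/DsRed ratio, decoded by Illumina sequencing, PSI is the read-weighted mean bin number.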

| Sequence | protein stability index [1] | protein stability index [2] | protein stability index (treatment: DMSO, c terminus: native) | protein stability index (treatment: MLN4924 1 uM, 8 h, c terminus: native) |
| --- | --- | --- | --- | --- |
| DNVPDPKDVKERFSGSLVAALSAT [TMEM175] | 4.42 ± 0.34 | 4.44 ± 0.34 | – | – |
| RDCGEEMQNGAGASRTSTIFLNGN [TNXB] | 3.99 ± 0.56 | 4.34 ± 0.23 | – | – |
| LAQRTQQDSTRTVGERLQDTHSWK [TEKT4] | 4.42 ± 0.6 | 4.64 ± 0.21 | – | – |
| MAKFVIRPATAADCSDILRLIKEL [SAT1] | 2.04 ± 0.16 | 2.22 ± 0.22 | – | – |
| STSFMSSSSSSSSWLTRRAIRPEN [EMD] | 3.39 ± 0.35 | 3.38 ± 0.16 | – | – |
| RLLQASGGGLTGVSGSHFVGVDGV [PCDHGA10] | 2.78 ± 0.46 | 3.01 ± 0.28 | – | – |
| LEFRKSMYEEEINETRRKHETRLV [LMNB1] | 4.02 ± 0.21 | 4.06 ± 0.25 | – | – |
| HRNQCQYCRLKKCLKVGMRREAVQ [NR2F2] | 2.39 ± 0.47 | 2.57 ± 0.57 | – | – |
| ELQGDFSVPDVPKSMAWCENSICV [VPS39] | 2.67 ± 0.22 | 2.67 ± 0.18 | – | – |
| RRRVPVRNLGKVVHYAKVQLRFQH [PLEKHN1] | 2.35 ± 0.39 | 2.29 ± 0.25 | – | – |
| AARNACRAGTEPSDAIRVVNAVLT [TRIP13] | 3 ± 0.45 | 3.19 ± 0.33 | – | – |
| VVNHLSCDEARNHYGGVVSLIPLI [SPACA9] | 2.2 ± 0.14 | 2.12 ± 0.24 | – | – |
| TIVEEVQDGKVISSREQVHQTTR [KRT17] | – | – | 5.03 ± 0.23 | 5.08 ± 0.25 |
| TKKHIPYREHKSLTGTARYMSINT [CSNK1G1] | 2.51 ± 0.15 | 2.65 ± 0.23 | – | – |
| EEEGFGSSSPVKSPAAPYFLGSSF [WEE1] | 3.73 ± 0.18 | 3.77 ± 0.065 | – | – |
| MGGCPVRKRRRNGSKEGNHHSTQP [FAM104B] | 4.72 ± 0.17 | 4.86 ± 0.24 | – | – |
| SKRLAVPCKLEKMRILAHGELVLA [TLE6] | 2.26 ± 0.49 | 2.35 ± 0.45 | – | – |
| ISWAFTDRPDLSLTVLPKLQARER [C2CD2L] | 2.68 ± 0.28 | 2.71 ± 0.43 | – | – |
| VLDLSKSLSAALLTAALLTFDTGC [POMT2] | 3.38 ± 0.38 | 2.98 ± 0.2 | – | – |
| YRGMLDTHHKLCTFILKNPPENSD [EIF5] | 3.29 ± 0.2 | 3.25 ± 0.18 | – | – |
| LNFKAEPESETSILLSWTPPRSDT [PTPRD] | 3.3 ± 0.36 | 3.45 ± 0.28 | – | – |
| GPLLGTNGATDDSKTNLIVNYLPQ [ELAVL3] | 3.84 ± 0.3 | 3.92 ± 0.24 | – | – |

| Sequence | protein stability index [1] | protein stability index [2] | protein stability index (treatment: DMSO, c terminus: native) | protein stability index (treatment: MLN4924 1 uM, 8 h, c terminus: native) |
| --- | --- | --- | --- | --- |
| LQPPHESRPQPIYYGFSESAESQG [ADAMTSL2] | 4.18 ± 0.39 | 4.22 ± 0.56 | – | – |
| ADSGRYRASPTRTAPLPMPEGPEP [ELOA2] | 4.84 ± 0.32 | 4.96 ± 0.28 | – | – |
| QYYEACRKAAKSLIKLGLERFHGV [ACSBG2] | 3.51 ± 1.3 | 3.45 ± 0.44 | – | – |
| PFTKKRVGVDRAFPLKPMVHRKSC [ZC2HC1C] | 3.4 ± 0.13 | 3.65 ± 0.1 | – | – |
| NYPKGGLLDSMCPASTPSVLSSEQ [ETS2] | 4.64 ± 0.26 | 4.45 ± 0.15 | – | – |
| MLKRPVLLHLHQTAHADEFDCPSE [STEAP1] | 3.73 ± 0.29 | 3.73 ± 0.48 | – | – |
| DLFGWSQLIYNHITTRVNSEQEHF [ADD1] | 2.72 ± 0.51 | 2.55 ± 0.41 | – | – |
| ERMWAAIQSWDINSRRNINYRSFE [ZER1] | 2.28 ± 0.35 | 2.26 ± 0.25 | – | – |
| GKLSWGTMARALGRFKLSIPHTHL [WDR88] | 2.31 ± 0.28 | 2.13 ± 0.11 | – | – |
| ENEKLHQRVEQLTRDLAGLRQFFK [CEBPD] | 3.01 ± 1.3 | 2.55 ± 0.28 | – | – |
| DTVTIPVPSEEPQESDQTEEHESG [IQUB] | 5.54 ± 0.29 | 5.72 ± 0.14 | – | – |
| LMRHGMEKIWRPNRVFSLQDLCCR [RAB40C] | 2.74 ± 0.14 | 2.71 ± 0.27 | – | – |
| QLKKCETRKLSPGKKRCKDIKRLL [SMG5] | 3.32 ± 0.51 | 3.22 ± 0.18 | – | – |
| FYTCASHVTVVILFFVPCIFLYAR [OR4A15] | 3.13 ± 0.35 | 3.08 ± 0.26 | – | – |
| RKRRLFCTMEPEPVQPGMLIDVCK [TRIM35] | 2.6 ± 0.41 | 2.69 ± 0.12 | – | – |
| RNKESPVFAPVYFPEELHRKAALE [HMOX1] | 4.11 ± 0.4 | 4.147 ± 0.023 | – | – |
| ITWFKDFLPVDTSNNNGRIKQLRS [PTPRD] | 2.47 ± 0.52 | 2.96 ± 0.3 | – | – |
| TRRAQADLAYQLQVAKTKQQIEEQ [FLOT1] | 4.82 ± 0.19 | 4.8 ± 0.2 | – | – |
| EAFQLYQEAAQLDMLLEKLPQVAE [FLOT1] | 2.43 ± 0.37 | 2.69 ± 0.44 | – | – |
| QINRLQKLIDRLEKKDLKLEPPEE [NECAB1] | 3.22 ± 0.1 | 3.7 ± 0.56 | – | – |
| RGPPRGLRGGRGGSGGTRGPPSRG [RBMX] | 5.18 ± 0.2 | 4.92 ± 0.33 | – | – |
| FLKQGDSADETTAHKTEEENSDSD [CMTM3] | 5.63 ± 0.25 | 5.58 ± 0.43 | – | – |

| Sequence | protein stability index [1] | protein stability index [2] | protein stability index (treatment: DMSO, c terminus: native) | protein stability index (treatment: MLN4924 1 uM, 8 h, c terminus: native) |
| --- | --- | --- | --- | --- |
| HITKTVKGGISETRIEKRIVITGD [EPB41L3] | 3.85 ± 0.28 | 3.96 ± 0.12 | – | – |
| HDKIRPISSIGQVQSYMEHYCNSS [SPACA9] | 3.6 ± 0.4 | 3.72 ± 0.18 | – | – |
| SASEMKQLIDNILEESDIDRDGTI [CIB1] | 5.31 ± 0.27 | 5.45 ± 0.2 | – | – |
| MANIHQENEEMEQPMQNGEEDRPL [BEX3] | 5.46 ± 0.055 | 5.71 ± 0.087 | – | – |
| GKVQDIKAREKDGKGRTASPINSP [FSD1] | 4.99 ± 0.37 | 5.25 ± 0.24 | – | – |
| VSMLGYPFILPDMVGGNAVPQRTA [MYORG] | 2.25 ± 0.42 | 2.54 ± 0.32 | – | – |
| GDRMFYRDWWNSTSFSNYYRTWNV [SOAT2] | 2.19 ± 0.16 | 2.28 ± 0.39 | – | – |
| DLCSDVNVCSLLAQTPLHVAAETG [RIPK4] | 3.46 ± 0.4 | 3.21 ± 0.47 | – | – |
| SEPFLTPYLLGPDKNLTEREVFNE [SLC19A2] | 4.8 ± 0.053 | 4.83 ± 0.062 | – | – |
| ARSVGLKWRKVGRSLQRGCRALRD [TRADD] | 2.57 ± 0.32 | 2.55 ± 0.46 | – | – |
| QGLEQFINKIAGHPLAQNERCLHM [SNX12] | 2.27 ± 0.13 | 2.41 ± 0.21 | – | – |
| EGSLCAAHLPKAQLSGYAVEATRN [FBF1] | 4.01 ± 0.17 | 3.99 ± 0.087 | – | – |
| REKGGKVLVHCEAGISRSPTICMA [DUSP5] | 2.93 ± 0.27 | 3.03 ± 0.38 | – | – |
| DCGPSRADRCSPKEDQAWDGASQD [FBXO34] | 5.37 ± 0.24 | 5.25 ± 0.28 | – | – |
| YNVIIGWSIFYFFKSFQYPLPWSE [SLC6A17] | – | 3.32 ± 0.67 | – | – |
| AKDYADSIHAIFVETSAKNAININ [RAB22A] | 2.59 ± 0.27 | 2.48 ± 0.34 | – | – |
| HGISIPEPEDMETLEEKFSDVHPV [CDKL4] | 5.29 ± 0.2 | 4.98 ± 0.28 | – | – |
| VQGLMKEYLLSFPAGKTPVPAGEE [VPS39] | 3.83 ± 0.39 | 3.88 ± 0.093 | – | – |
| KKTHETLSHAGQKATAAFSNVGTA [TPD52L1] | 4.44 ± 0.28 | 4.34 ± 0.21 | – | – |
| PLHVAQTRLYLRSHRPNMELCRDA [TEKT4] | 2.9 ± 0.17 | 3 ± 0.18 | – | – |
| SEEQLQEPITGWRKTVCHNGVLGL [LPCAT4] | 3.58 ± 0.45 | 3.64 ± 0.38 | – | – |
